Values of other authors as cited in publication PMC7139808.

Tests used:
[1] = biological target: hemoglobin (Mus musculus) (UniProt P01942)
[2] = biological target: hemoglobin (Homo sapiens) (UniProt P69905)
UniProt P69905, sequence (P69905 2-142, chain 1 of 2): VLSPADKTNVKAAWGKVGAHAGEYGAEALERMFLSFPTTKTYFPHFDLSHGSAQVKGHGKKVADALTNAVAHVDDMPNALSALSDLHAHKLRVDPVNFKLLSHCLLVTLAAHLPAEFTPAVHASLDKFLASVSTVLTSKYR
UniProt P69905, sequence (P68871 2-147, chain 2 of 2, further chain): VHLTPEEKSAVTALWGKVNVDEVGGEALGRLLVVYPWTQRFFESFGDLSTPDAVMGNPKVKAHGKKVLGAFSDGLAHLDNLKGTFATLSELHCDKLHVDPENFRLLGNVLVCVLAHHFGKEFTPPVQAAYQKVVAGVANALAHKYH

UniProt P01942, sequence (P01942 2-142, chain 1 of 2): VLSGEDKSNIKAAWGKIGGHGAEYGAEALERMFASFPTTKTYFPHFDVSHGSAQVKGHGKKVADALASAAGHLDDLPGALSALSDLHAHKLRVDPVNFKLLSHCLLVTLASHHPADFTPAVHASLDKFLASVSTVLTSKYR
UniProt P01942, sequence (P02088 2-147, chain 2 of 2, further chain): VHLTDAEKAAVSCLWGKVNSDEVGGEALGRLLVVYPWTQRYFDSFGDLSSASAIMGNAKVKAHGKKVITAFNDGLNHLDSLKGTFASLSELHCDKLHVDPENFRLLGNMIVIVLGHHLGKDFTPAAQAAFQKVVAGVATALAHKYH

## IsdB (from UniProt A7X146)
[1]
  Kd: 980 nM
[2]
  Kd: 55 nM
